Assay results as given in patent US12138308B2, “Polymer composite for helicobacter pylori recognition and composition for photodynamic therapy comprising same” (eNBiaR Inc., priority 2018, dated 2024).

Legend:
[1] = system: Helicobacter pylori SS1 strain; test: Confocal microscopy: interaction with and inactivation of Helicobacter pylori SS1 strain; type: cell-based
Description: (§1) Then, it was redispersed with D.W and the above process was repeated twice.
as §1

AGS cells [2] = system: AGS cells
Protocol: AGS cells were dispensed into each well by 1 ml at a concentration of 2×10^4 cells/well in a 24-well plate and cultured at 37° C. and 5% CO2 for 24 hours.
After the reaction, the laser was irradiated in the range of 0-4.0 J/cm^2 using a laser of 50 mW intensity, and the MTT assay was performed to calculate the cell viability compared with the control.

[3] = system: Helicobacter pylori (SS1 strain); test: Antibacterial activity in vitro by concentration, CFU assay, laser 10.0 J/cm^2; type: cell-based; settings: for colony result value compared to the NC group at 50.0 μg/ml: 50.0 μg/ml free photosensitizer; for colony result value compared to the NC group at 50.0 μg/ml / concentration at which colonies hardly appear / did not appear / Helicobacter pylori no longer grows / concentration from which the number of Helicobacter pylori colonies decreases: laser 10.0 J/cm^2; for concentration at which colonies hardly appear / did not appear / Helicobacter pylori no longer grows / concentration from which the number of Helicobacter pylori colonies decreases: concentration based on the photosensitizer
AGS cells [4] = test: Cellular uptake in AGS cells (pheophorbide a fluorescence intensity); type: cell-based, human; settings: 30 minutes at 36° C., equal concentration based on pheophorbide a
Protocol: After incubation, it was washed twice with DPBS, treated with trypsin and cells were collected and centrifuged (1500 rpm, 3 minutes) to remove the supernatant.

[5] = system: Helicobacter pylori (26695 strain); test: Inhibition zone analysis of photodynamic antibacterial effect by laser intensity; type: cell-based; settings: 50.0 μg/ml based on Pheoa

butyl-poly(6SL-lysine)10-Pheoa
interaction with Helicobacter pylori (Cy5 fluorescence of pheophorbide a coinciding with SYTO 9) ([1]; SS1 strain 1×10^6 CFU/ml, 1 μg/ml based on pheophorbide a, 37° C., 2 hours): fluorescence of Cy5 (purple) of pheophorbide a of HSP did not appear
inactivation: propidium iodide (Red) fluorescence, cell membrane damage ([1]; SS1 strain, total 10 J/cm^2, 50 mW, Laser (+) for 3SL-LRHSP, Laser(+) and Laser(−) for the controls): propidium iodide (Red) fluorescence was not confirmed

pheophorbide a [reference compound]
laser irradiation dose from which cytotoxicity appeared (AGS cells [2]): 0.8 J/cm^2
number of Helicobacter pylori colonies at 50.0 μg/ml ([3]; 50.0 μg/ml based on Pheoa, same amount of laser (10.0 J/cm^2)): 9×10^2 CFU/ml
colony result value compared to the NC group at 50.0 μg/ml [3]: slightly less than half
cellular uptake: pheophorbide a fluorescence intensity compared with the control (AGS cells [4]): 7×10^2

3′-sialyllactose-chitosan-pheophorbide a [3SL-Chitosan-Pheoa]
concentration at which colonies hardly appear / did not appear / Helicobacter pylori no longer grows [3]: 25.0 µg/mL
concentration from which the number of Helicobacter pylori colonies decreases [3]: 10.0 µg/mL

butyl-poly(3SL-lysine)10-Ce6
concentration at which colonies hardly appear / did not appear / Helicobacter pylori no longer grows [3]: 1.0 µg/mL
concentration from which the number of Helicobacter pylori colonies decreases [3]: 0.5 µg/mL

3′-Sialyllactose-Pullulan-Pheophorbide a [Example 3SL-PU-Pheoa]
number of Helicobacter pylori colonies at 20.0 μg/ml ([3]; 20.0 μg/ml based on Pheoa, laser 10.0 J/cm^2, decreased from 1×10^5 CFU/ml): 5×10^3 CFU/ml
concentration at which colonies hardly appear / did not appear / Helicobacter pylori no longer grows [3]: ≥ 50.0 µg/mL

chlorin e6 [Ce6, reference compound]
colony result value compared to the NC group at 50.0 μg/ml [3]: more than half

butyl-poly(3SL-lysine)10-HPP
number of Helicobacter pylori colonies at 10.0 μg/ml ([3]; 10.0 μg/ml based on HPP, laser 10.0 J/cm^2, decreased from 1×10^5 CFU/ml): 3×10^3 CFU/ml
concentration at which colonies hardly appear / did not appear / Helicobacter pylori no longer grows [3]: ≥ 25.0 µg/mL

butyl-poly(3SL-lysine)10-PPIX
concentration at which colonies hardly appear / did not appear / Helicobacter pylori no longer grows [3]: 10.0 µg/mL
concentration from which the number of Helicobacter pylori colonies decreases [3]: 5.0 µg/mL

butyl-poly(3SL-lysine)10-SSiPC
number of Helicobacter pylori colonies at 25.0 μg/ml ([3]; 25.0 μg/ml based on SSiPC, laser 10.0 J/cm^2, decreased from 1×10^5 CFU/ml): 4×10^3 CFU/ml
concentration at which colonies hardly appear / did not appear / Helicobacter pylori no longer grows [3]: 50.0 µg/mL

succinylated silicon phthalocyanine [SSiPC, reference compound]
colony result value compared to the NC group at 50.0 μg/ml [3]: more than half

3′-Sialyllactose-PEG-Pheophorbide a [3SL-PEG-Pheoa]
inhibition zone at laser intensities of 30, 40, and 50 J/cm^2 ([5]; 100 mW laser): inhibition zone was also identified
inhibition zone at 10.0 J/cm^2 laser ([5]; 100 mW laser, read two days later): inhibition zone in which Helicobacter pylori does not grow was confirmed
inhibition zone without laser irradiation ([5]; comparative group, laser not irradiated): no inhibition zone was found
